The values below come from article PMC9606073 (Immunity, 2022).

The test deals with SARS-CoV-2 Omicron BA.4/BA.5 RBD (SARS-CoV-2 Omicron BA.4/BA.5, strain). Briefly: SPR. To be noted: both partners purified.

As a reminder, the Kd is the equilibrium constant for the complex coming apart. As a reminder, the koff is a measure of how fast the partners let go of each other. One may read the kon as the second-order rate constant of association. Lower therefore signals slow association.

B1: M8a-3 IgG (antibody, V domains shown)
VH: QVQLQQPGAELVLPGASVKLSCKASGYTFTNYWMHWVKQRPGHGLEWIGEIDPFDTYIKINQKFKGKSTLTVDTSSSTAYMQLSSLTSEDSAVYYCARPDSSGYPVYFDYWGQGTTLTVSS
VL: DIVMTQSHKFMSTSVGDRVSITCKASQDVGTYIAWYQQKPGQSPKLLIYWASTRHTGVPDRFTGSGSGTNYTLTISSVQAEDLALYHCQQHYSTPYTFGGGTKLEIK
notes: copies: 2 + 2
The molecule B1 gave a Kd of 2.2 nM, a koff of 0.00045 s⁻¹ and a kon of 210000 M⁻¹ s⁻¹.

B2: C118 IgG (antibody, V domains shown)
VH: QVQLVESGGGVVQPGRSLRLSCAASGFTFSNYAMHWVRQAPGKGLEWVAVISYDGSNKYYADSVKGRFTISRDNSKNTLYLQMNSLRAEDTAIYYCASGYTGYDYFVRGDYYGLDVWGQGTTVTVSS
VL: QPVLTQSPSASASLGASVKLTCTLSSGHSSYAIAWHQQQPEKGPRYLMKLNTDGSHSKGDGIPDRFSGSSSGAERYLTISSLQSEDEADYYCQTWGTGILVFGGGTKLTVL
notes: copies: 2 + 2
Molecule B2 returned a Kd of 28 nM, a koff of 0.0039 s⁻¹ and a kon of 140000 M⁻¹ s⁻¹.

B3: M8a-6 IgG (antibody, V domains shown)
VH: QVQLQQPGTELVMPGASVKLSCKTSGYTFTHYWMHWVKQRPGEGLEWIGEIAPSDNYVKYNQKFKGKSTLSVDRSSSTAYMQLSSLTSEDSAVYFCARPDNSGYPVYFDYWGQGTSLTVSS
VL: DIVMTQSQKFMSTSLGDRVSISCKASQDVGTTVAWYQQKPGQSPKLLIYWASTRHTGVPDRFTGTGSGTDYTLTISSVAAEDLALYYCQQHYNTPYTFGGGTKLEIE
notes: copies: 2 + 2
The molecule B3 came in with a Kd of 290 nM.
